By Kd is commonly meant the free concentration of one partner at which half of the binding sites on the other are occupied at equilibrium, for simple one-to-one binding.

Data set [1] has as its target T1, TGFβ2 (transforming growth factor beta 2) (Homo sapiens) (UniProt P61812).
T1 sequence: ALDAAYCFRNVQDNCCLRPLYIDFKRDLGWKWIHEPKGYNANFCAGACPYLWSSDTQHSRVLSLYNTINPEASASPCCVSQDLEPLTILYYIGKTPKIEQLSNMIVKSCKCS
The data set can be described thus: filter. To be noted: 2'-F C and U.

Data set [2] has as its target T2, TGFβ3 (transforming growth factor beta 3) (Homo sapiens) (UniProt P10600).
T2 sequence: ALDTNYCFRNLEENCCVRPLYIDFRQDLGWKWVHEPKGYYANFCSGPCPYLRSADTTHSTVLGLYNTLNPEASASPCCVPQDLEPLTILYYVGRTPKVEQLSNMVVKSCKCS
In words: filter. To be noted: 2'-F C and U; round 0 pool.

“GGGAGGACGAUGCGGNNNNNNNNNNNNNNNNNNNNNNNNNNNNNNNNNNCAGACGACUCGCCCGA [34N7.21a-21 biased round 0 pool]”: in data set [1] (biased round 0 pool, protein excess), the dissociation constant (Kd) is 0.87 µM. Take “GGGAGGACGAUGCGGNNNNNNNNNNNNNNNNNNNNNNNNNNNNNNNNNNNNNNNNCAGACGACUCGCCCGA [round 0 40N7 pool]”: the equilibrium dissociation constant (Kd) was over 10 µM in data set [1] (round 0 pool, printed as >10 [M) and over 10 µM in data set [2].

The values above are taken from patent US20040258656.
